The chains are these.
B1: Recombinant full-length His6-Rrp47 (natural protein, S. cerevisiae, UniProt P38801 1-184, looked up)
chain: MEDIEKIKPYVRSFSKALDELKPEIEKLTSKSLDEQLLLLSDERAKLELINRYAYVLSSLMFANMKVLGVKDMSPILGELKRVKSYMDKAKQYDNRITKSNEKSQAEQEKAKNIISNVLDGNKNQFEPSISRSNFQGKHTKFENDELAESTTTKIIDSTDHIRKASSKKSKRLDKVGKKKGGKK
notes: Rrp47 (also known as Lrp1), S. cerevisiae, full-length recombinant protein; On its own a non-globular homodimer (theoretical homodimer mass 50,920 Da with the tag); One copy stands in the heterodimer with Rrp6NT; also called His-Rrp47; Lrp1; source: for the complex, co-lysed with cells expressing Rrp6NT
B2: GST-Rrp6NT (domain or fragment, S. cerevisiae, UniProt Q12149 1-211, looked up)
chain: MTSENPDVLLSRVINVVRAASSLASQDVDFYKNLDRGFSKDLKSKADKLADMANEIILSIDEHHESFELKEEDISDLWNNFGNIMDNLLEMSDHSLDKLNCAINSKSRGSDLQYLGEFSGKNFSPTKRVEKPQLKFKSPIDNSESHPFIPLLKEKPNALKPLSESLRLVDDDENNPSHYPHPYEYEIDHQEYSPEILQIREEIPSKSWDDS
notes: Rrp6, S. cerevisiae, N-terminal region (Rrp6NT, holds the PMC2NT domain); The preparation held some proteolytic fragments of the GST fusion; also called Rrp6NT domain; N-terminal region of Rrp6; source: E. coli, co-lysed with cells expressing His6-Rrp47; complex purified (Ni-NTA, glutathione-Sepharose, Superdex 200)
B3: C-terminally truncated Rrp47NT protein (domain or fragment, S. cerevisiae, UniProt P38801 1-120, looked up)
chain: MEDIEKIKPYVRSFSKALDELKPEIEKLTSKSLDEQLLLLSDERAKLELINRYAYVLSSLMFANMKVLGVKDMSPILGELKRVKSYMDKAKQYDNRITKSNEKSQAEQEKAKNIISNVLD
notes: Rrp47 (Lrp1), S. cerevisiae, N-terminal domain; the discussion gives it as the first 120 amino acid residues; it probably carries a His tag like the full-length protein; also called N-terminal domain of Rrp47; Rrp47NT polypeptide

Data set [1] concerns the molecule itself. Kind of data set: AUC; sedimentation velocity, 38,000 rpm, 20 °C, 50 mM Hepes pH 7.6, 500 mM NaCl, 0.25 and 1 mg/ml, absorbance at 280 nm, SEDFIT.
Data set [2] concerns the target B1. Kind of data set: pull-down + SEC; E. coli cells expressing His6-Rrp47 or GST-Rrp6NT lysed together; Ni-NTA, then glutathione-Sepharose, then Superdex 200; 50 mM HEPES pH 7.6, 300 mM NaCl; ratio from densitometry of the Coomassie-stained SDS-PAGE of the peak fraction.
Data set [3] concerns the molecule itself. The experiment in a line: cross-linking; 0.01% glutaraldehyde on ice, ~40 µM protein, 50 mM HEPES pH 7.6, 300 mM NaCl; SDS-PAGE and Western blot. On the technique in general: In western blotting, separated proteins are transferred to a membrane and probed.

The results in this text go back to paper PMC3668751, “Assembly of the Yeast Exoribonuclease Rrp6 with Its Associated Cofactor Rrp47 Occurs in the Nucleus and Is Critical for the Controlled Expression of Rrp47*” (The Journal of Biological Chemistry, 2013).

With B1, in data set [1], the stoichiometry N (as a rule, the number of molecules, sites or subunits per partner or assembly) was found to be 2.

For B2, in data set [2], the “stoichiometry N” value worked out at 0.8 Rrp6NT per Rrp47.

On to B3, for which, in data set [3], the “stoichiometry N” value came out at 2.
